# B1: Flag-tagged TBK1 (pBOBI-3×Flag-hTBK1) (enzyme, human, UniProt Q9UHD2 1-729, looked up)
# chain: MQSTSNHLWLLSDILGQGATANVFRGRHKKTGDLFAIKVFNNISFLRPVDVQMREFEVLKKLNHKNIVKLFAIEEETTTRHKVLIMEFCPCGSLYTVLEEPSNAYGLPESEFLIVLRDVVGGMNHLRENGIVHRDIKPGNIMRVIGEDGQSVYKLTDFGAARELEDDEQFVSLYGTEEYLHPDMYERAVLRKDHQKKYGATVDLWSIGVTFYHAATGSLPFRPFEGPRRNKEVMYKIITGKPSGAISGVQKAENGPIDWSGDMPVSCSLSRGLQVLLTPVLANILEADQEKCWGFDQFFAETSDILHRMVIHVFSLQQMTAHKIYIHSYNTATIFHELVYKQTKIISSNQELIYEGRRLVLEPGRLAQHFPKTTEENPIFVVSREPLNTIGLIYEKISLPKVHPRYDLDGDASMAKAITGVVCYACRIASTLLLYQELMRKGIRWLIELIKDDYNETVHKKTEVVITLDFCIRNIEKTVKVYEKLMKINLEAAELGEISDIHTKLLRLSSSQGTIETSLQDIDSRLSPGGSLADAWAHQEGTHPKDRNVEKLQVLLNCMTEIYYQFKKDKAERRLAYNEEQIHKFDKQKLYYHATKAMTHFTDECVKKYEAFLNKSEEWIRKMLHLRKQLLSLTNQCFDIEEEVSKYQEYTNELQETLPQKMFTASSGIKHTMTPIYPSSNTLVEMTLGMKKLKEEMEGVVKELAENNHILERFGSLTMDGGLRNVDCL
# notes: TBK1, kinase; hTBK1 in the construct's name; The end of the tag and the species are read from the printed name of the construct; also called Flag-TBK1; source: HEK293T, transfected, in cytosolic extract; HEK293T, purified (eluted with 3×Flag peptide); not shown: 3×Flag, N-terminal, kept
# Biological target: T1, HA-tagged KDM5C, full length (UniProt P41229 1-1560)
# T1 construct: KDM5C (JARID1C, SMCX), histone demethylase; the truncations run to residue 1560; KDM5C was sub-cloned into pCDH-3×Flag-3×HA-EF1-puro and into pLV-EF1-puro(cs2.0)-N-3×HA; also called HA-KDM5C; KDM5C FL; source: HEK293T, transfected, in lysate, nuclear extract or cytosolic extract; HEK293T, purified on anti-HA agarose
# T1 sequence (P41229 whole entry, the tested form may be a part): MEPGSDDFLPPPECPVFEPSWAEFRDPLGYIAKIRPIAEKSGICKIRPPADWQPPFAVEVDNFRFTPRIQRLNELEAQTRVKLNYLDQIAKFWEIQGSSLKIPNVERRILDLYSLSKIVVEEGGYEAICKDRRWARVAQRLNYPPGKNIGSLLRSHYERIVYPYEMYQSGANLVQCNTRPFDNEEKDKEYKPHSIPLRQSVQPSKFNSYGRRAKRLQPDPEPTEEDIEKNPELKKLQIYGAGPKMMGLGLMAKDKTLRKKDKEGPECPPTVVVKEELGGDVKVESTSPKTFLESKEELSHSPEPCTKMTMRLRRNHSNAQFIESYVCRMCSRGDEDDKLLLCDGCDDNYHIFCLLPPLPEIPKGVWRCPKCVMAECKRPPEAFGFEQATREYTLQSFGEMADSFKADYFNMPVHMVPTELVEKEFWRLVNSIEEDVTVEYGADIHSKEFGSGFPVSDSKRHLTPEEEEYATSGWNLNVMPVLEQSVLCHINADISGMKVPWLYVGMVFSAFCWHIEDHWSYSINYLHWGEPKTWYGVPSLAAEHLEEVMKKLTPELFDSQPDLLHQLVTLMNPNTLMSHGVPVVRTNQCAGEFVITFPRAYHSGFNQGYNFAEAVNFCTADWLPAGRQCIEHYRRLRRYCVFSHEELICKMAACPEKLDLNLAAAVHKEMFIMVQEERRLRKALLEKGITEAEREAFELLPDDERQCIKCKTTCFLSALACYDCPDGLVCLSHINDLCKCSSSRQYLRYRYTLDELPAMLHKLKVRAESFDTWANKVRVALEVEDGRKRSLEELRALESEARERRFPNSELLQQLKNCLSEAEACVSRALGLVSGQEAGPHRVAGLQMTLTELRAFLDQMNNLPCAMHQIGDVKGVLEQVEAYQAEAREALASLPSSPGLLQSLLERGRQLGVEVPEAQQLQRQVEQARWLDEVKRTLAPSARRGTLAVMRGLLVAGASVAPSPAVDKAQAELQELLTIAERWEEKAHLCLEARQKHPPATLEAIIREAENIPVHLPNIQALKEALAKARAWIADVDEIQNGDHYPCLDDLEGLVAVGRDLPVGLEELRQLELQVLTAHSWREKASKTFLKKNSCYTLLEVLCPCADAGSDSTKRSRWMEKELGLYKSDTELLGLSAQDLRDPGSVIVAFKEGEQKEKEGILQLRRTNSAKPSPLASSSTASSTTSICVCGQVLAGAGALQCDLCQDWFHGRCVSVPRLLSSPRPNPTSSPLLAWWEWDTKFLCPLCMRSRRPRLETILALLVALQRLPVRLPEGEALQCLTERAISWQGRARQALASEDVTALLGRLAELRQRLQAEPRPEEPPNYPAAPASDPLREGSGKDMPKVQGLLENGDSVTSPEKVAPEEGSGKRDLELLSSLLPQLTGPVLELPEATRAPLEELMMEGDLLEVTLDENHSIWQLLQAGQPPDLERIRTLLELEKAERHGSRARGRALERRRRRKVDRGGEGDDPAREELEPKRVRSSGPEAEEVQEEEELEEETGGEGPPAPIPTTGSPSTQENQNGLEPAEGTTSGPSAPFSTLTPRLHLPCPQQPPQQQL
# Assay: co-IP; cytosolic extracts from transfected HEK293T cells; IP with anti-HA antibody; immunoblotting
# Settings: partners not purified
binder,measurement,value
B1,binding result,binds

# — publication PMC8097366, “The Dual Function of KDM5C in Both Gene Transcriptional Activation and Repression Promotes Breast Cancer Cell Growth and Tumorigenesis” (Advanced Science, 2021)
